In patent publication US20220381793A1, “COMPOSITIONS AND METHODS FOR IDENTIFYING MHC-II BINDING PEPTIDES” (priority 2021, published 2022) one finds IC50, Kd and % competition data, which are given here for 6 molecules.

By IC50 is commonly meant the concentration that gives 50% inhibition. Read a high IC50 as weaker potency. The term Kd denotes the equilibrium constant for the complex coming apart. Lower therefore signals a tighter complex.

The target of experiment [1] is T1, “empty” DQ6-LZ (DQA1*01:02/DQB1*06:02 ectodomains with Fos/Jun leucine zippers, non-covalent heterodimer displayed on yeast through Aga2p). Briefly: competition. As to conditions: chains peptide; modification not given.
Experiment [2] addresses T1, “empty” DQ6-LZ (DQA1*01:02/DQB1*06:02 …). Kind of experiment: flow. To be noted: chains peptide; modification not given.
Experiment [3] concerns the target T2, “empty” DR4-LZ (DRA*01:01/DRB1*04:01 ectodomains with Jun/Fos leucine zippers, non-covalent heterodimer displayed on yeast through Aga2p). Kind of experiment: flow. To be noted: chains peptide; modification not given.
For experiment [4], the target named is T2, “empty” DR4-LZ (DRA*01:01/DRB1*04:01 …). Briefly: competition. To be noted: chains peptide; modification not given.
For experiment [5], the target named is T3, “empty” DR4-LZ (DRA*01:01/DRB1*04:01 ectodomains with Jun/Fos leucine zippers, non-covalent heterodimer displayed on yeast through Aga2p) (human).
Experiment [6] deals with T3, “empty” DR4-LZ (DRA*01:01/DRB1*04:01 …). The source holds these as a separate data set.

Read-outs that look alike come from different tables or passages of the source. No end group written: not given here. Ahx = NCCCCCC(=O)O

QASGNHAAGILTMGR [HCRT85-99, O43612 85-99] yielded an IC50 in experiment [1] of 25.2 µM.
In turn, MNLPSTKVSWAAVK-{Ahx-biotin} [HCRT1-13-Bio (…-Ahx-biotin)] returned a Kd in experiment [2] of 12.5 µM.
Molecule PKYVKQNTLKLAT [Bio-HA306-318 (biotin-Ahx-…)] showed a Kd in experiment [3] of 33.2 µM.
In the case of PKYVKQNTLKLAT [non-biotinylated HA306-318], the IC50 in experiment [4] amounted to 66.8 µM.
NRALTGIAVEQDKNTQE (modifications not checked) [S764-780, P0DTC2 764-780]: in experiment [5], the % competition was under 50%.
In the case of HGVVFLHVTYVPAQEKN (modifications not checked) [S1058-1074, P0DTC2 1058-1074], the % competition in experiment [6] was found to be 75%.
